Data from PMC2691818.

Columns and labels:
[1] = biological target: T1, h-mtTFA1-179 (Homo sapiens, UniProt Q00059 43-221); experiment: competition
T1 sequence: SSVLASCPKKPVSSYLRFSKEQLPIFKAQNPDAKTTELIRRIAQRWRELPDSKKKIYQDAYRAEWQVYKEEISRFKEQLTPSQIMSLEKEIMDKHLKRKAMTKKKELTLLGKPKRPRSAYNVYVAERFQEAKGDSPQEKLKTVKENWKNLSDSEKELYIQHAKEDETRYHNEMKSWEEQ

[2] = biological target: T2, h-mtTFA box B (mtTFA110-179) (Homo sapiens, UniProt Q00059 152-221); experiment: EMSA
T2 sequence: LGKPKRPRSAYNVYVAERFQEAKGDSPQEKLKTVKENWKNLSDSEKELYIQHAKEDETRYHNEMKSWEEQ

[3] = biological target: T3, h-mtTFA full-length (mature) (Homo sapiens, UniProt Q00059 43-246); experiment: EMSA
T3 sequence: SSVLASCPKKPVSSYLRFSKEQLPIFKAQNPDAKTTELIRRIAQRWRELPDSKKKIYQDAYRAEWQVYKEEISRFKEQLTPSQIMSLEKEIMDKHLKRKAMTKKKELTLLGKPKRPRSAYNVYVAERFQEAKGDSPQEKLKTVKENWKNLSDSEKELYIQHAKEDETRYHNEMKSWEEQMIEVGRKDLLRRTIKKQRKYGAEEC

[4] = biological target: T1, h-mtTFA1-179; experiment: EMSA

B1: 30 bp scrambled nonspecific DNA (NS DNA) (dsDNA)
DNA 1: ACTACTAACAGACCGCAACCTAAACACAAC
DNA 2: GTTGTGTTTAGGTTGCGGTCTGTTAGTAGT
B1: binds [1].

B2: 30 bp LSP DNA, unlabeled (dsDNA)
DNA 1: GTGTTAGTTGGGGGGTGACTGTTAAAAGTG
DNA 2: CACTTTTAACAGTCACCCCCCAACTAACAC
B2: no binding [2].

B3: 30 bp LSP DNA, 32P-labeled (dsDNA)
DNA 1: B2 DNA 1
DNA 2: B2 DNA 2
Binder B3 has a Kd [3] of 5.4 ± 0.6 nM and a Kd [4] of 12 ± 1.7 nM.
